Where “and” joins values, the source holds several entries; their conditions need not be identical. Equal entries are not always repeated. Where no end group is shown, it is not given here.
Experiment: Liver serum markers after PFC injection
Type: in vivo, mouse
Parameters: serum level of ALP (alkaline phosphatase) / serum level of ALT (alanine aminotransferase) / serum level of GLDH (glutamate dehydrogenase) / serum level of AST (aspartate aminotransferase): unit not given here
Details: 1 mM per kg BW i.v. over 3 consecutive days, blood 24 h after last injection; individual mice
Protocol: ^ConPFCs, ^mNPPFCs (each at 1 mM per kg BW) or saline were injected i.v. over 3 consecutive days. Twenty-four hours after the last injection, mice were killed, and blood samples were withdrawn to determine GLDH, AST, ALP, ALT and bilirubin levels by standard clinical procedures. Furthermore, the liver and spleen were dissected, fixed in formalin and snap frozen. Subsequently, 4-µm cryosections were cut and stained with hematoxylin and eosin as described previously.
Extended Data Fig. 3 Assessment of ^mNPPFC/^ConPFC biodistribution, liver serum markers and histology of liver and spleen. a, Biodistribution of intravenously injected ^mNPPFCs was determined via ^19F MRI measurements at distinct time points after injection (1, 3, 6 and 24 h after injection). Shown are quantification of fluorine signal intensities in the blood, liver and spleen indicating a fast wash-out from the blood accompanied by a strong influx into the liver while signal intensities in the spleen were constant over the entire observation period; a.u. = arbitrary units. b, Serum levels of GLDH (glutamate dehydrogenase), AST (aspartate aminotransferase), ALP (alkaline phosphatase), ALT (alanine aminotransferase) and bilirubin after intravenous application of NaCl as control, ^ConPFCs or ^mNPPFCs. c + d, 4 µm sections of liver (C) and spleen (D) stained with hematoxylin and eosin. Organs were excised and processed for histology 24 h post injection of NaCl (upper row), ^ConPFCs (middle), ^mNPPFCs (lower). Representative liver/spleen images of organs from three different animals are shown. Scale bars indicate 100 µm. Data are mean values ± SD of n = 6 (a), n = 4-6 (b) and n = 6 (c + d) independent experiments. Source data

SLAMFLTHSPEP-GGG-C [Con, reference compound]
serum level of ALP (alkaline phosphatase): 5.7 and 16.2 and 33.5 and 13.2 and 6.6 and 3.4
serum level of ALT (alanine aminotransferase): 1.6 and 0.9 and 0.6 and 0.8 and 1.3
serum level of AST (aspartate aminotransferase): 0.4 and 2 and 3.4 and 0.6 and 3.1 and 2.6
serum level of GLDH (glutamate dehydrogenase): 1.19 and 1.21 and 2.18 and 0.14

DFYKPMPNLRITGGGC [mNP]
serum level of ALP (alkaline phosphatase): 4.3 and 4.6 and 15.5 and 19.1 and 10.5 and 11.8
serum level of ALT (alanine aminotransferase): 0.1 and 1 and 0.8
serum level of AST (aspartate aminotransferase): 1.5 and 6.8 and 1.6 and 1.4 and 2.5 and 2.3
serum level of GLDH (glutamate dehydrogenase): 0.89 and 1.11 and 3.48 and 0.9 and 0.22 and 0.33

From publication PMC11357992, “Non-invasive mapping of systemic neutrophil dynamics upon cardiovascular injury” (Nature Cardiovascular Research, 2023)
